# According to US20110136232A1 (MAYO FOUNDATION FOR MEDICAL EDUCATION AND RESEARCH, published 2011):
# T1: 3x HA-tagged FAK FERM domain (FAK residues R35-P362) (UniProt Q05397 35-362)
# T1 construct: range 35-362
# T1 sequence (looked up): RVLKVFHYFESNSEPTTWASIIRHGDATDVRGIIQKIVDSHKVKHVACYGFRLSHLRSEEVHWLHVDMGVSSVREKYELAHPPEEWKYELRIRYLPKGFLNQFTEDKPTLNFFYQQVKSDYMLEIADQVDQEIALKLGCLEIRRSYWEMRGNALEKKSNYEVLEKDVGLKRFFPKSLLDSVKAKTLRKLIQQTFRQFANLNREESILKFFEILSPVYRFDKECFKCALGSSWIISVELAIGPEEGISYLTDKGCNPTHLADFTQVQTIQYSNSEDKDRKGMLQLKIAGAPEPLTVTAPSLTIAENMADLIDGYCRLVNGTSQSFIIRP
# B1: mouse monoclonal antibody 12A10 (antibody, V domains shown)
# VH: EVKLQESGPELKKPGETVKISCKASGYTFTDYSMHWVMQSPGKGLKWMGWINTETGEPRYVDDFKGRFAFSLETSASTAYLQIINLKNEDTATYFCARWDHGHGGFTYWGQGTLVTVSA
# VL: DIVLTQTTASLAVSLGQRATMSCRATESVDSYGKSFMYWFQQRAGQPPKLLIYLASNLESVVPPRFSGSGSRTDFSLTIDPVEADDAATYYCQQNNEDPFTFGSGTKLEIK
# notes: Mouse IgG1 from hybridoma 12A10, raised against the His-tagged Pyk2 F3 module (D261-A366); Used as hybridoma supernatant in the ELISA screen and as an antibody in the Western blots; also called mAb 12A10; anti-Pyk2 12A10 monoclonal antibody
# Tests used:
# FLAG tagged Pyk2 I308E = biological target: T2, FLAG tagged Pyk2 I308E (UniProt Q14289 1-1009, limits assumed); assay: anti-FLAG immunoprecipitation and 12A10 immunoblot
# T2 construct: mature; also called Pyk2 with substitution of I308
# Source text: (§1) FIG. 2 (bottom panel) depicts a Western blot using anti-Pyk2 12A10 monoclonal antibody. SF767 cells were transfected with FLAG epitope tagged wild type (WT) Pyk2 or Pyk2 with the indicated amino acid substitution. Cells were lysed, Pyk2 was immunoprecipitated with anti-FLAG mAb, and immunoprecipitates immunoblotted with anti FLAG, anti-phosphotyrosine mAb pY20 or mAb 12A10. FIG. 2 (top) is a three dimensional model of the Pyk2 FERM with the locations of interacting residues, indicated by Arial font and non-interacting surfaces indicated by Times Roman font.
# (§2) Immunoprecipitation of cleared lysates was performed as described elsewhere (Lipinski et al., Biochem. Biophys. Res. Commun., 349:939-947 (2006)). For immunoblotting, equal amounts of protein (10-20 μg) were electrophoresed on 8-16% gradient SDS-PAGE gels (Invitrogen, Carlsbad, Calif.) and transferred to nitrocellulose. Immunoblotting of transferred proteins was performed with the appropriate primary antibodies for 1 hour at room temperature and was visualized by enhanced chemiluminescence (Perkin Elmer Life Sciences, Boston, Mass.).
# FLAG tagged Pyk2 D346A = biological target: T3, FLAG tagged Pyk2 D346A (UniProt Q14289 1-1009, limits assumed); assay: anti-FLAG immunoprecipitation and 12A10 immunoblot
# T3 construct: mature; also called Pyk2 with substitution of D346
# Source text: as §1, §2
# FLAG tagged Pyk2 Y135C = biological target: T4, FLAG tagged Pyk2 Y135C (UniProt Q14289 1-1009, limits assumed); assay: anti-FLAG immunoprecipitation and 12A10 immunoblot
# T4 construct: mature; also called Pyk2 with substitution of Y135
# Source text: as §1, §2
# FLAG tagged Pyk2 W104A = biological target: T5, FLAG tagged Pyk2 W104A (UniProt Q14289 1-1009, limits assumed); assay: anti-FLAG immunoprecipitation and 12A10 immunoblot
# T5 construct: mature; also called Pyk2 with substitution of W104
# Source text: as §1, §2
# FLAG tagged Pyk2 R306E = biological target: T6, FLAG tagged Pyk2 R306E (UniProt Q14289 1-1009, limits assumed); assay: anti-FLAG immunoprecipitation and 12A10 immunoblot
# T6 construct: mature; also called Pyk2 with substitution of R306
# Source text: as §1, §2
# Pyk2 FERM I308E variant = biological target: T7, Pyk2 FERM I308E variant (UniProt Q14289 39-366); assay: capture sandwich ELISA with hybridoma supernatant
# T7 construct: domain: FERM domain; Printed once as '1308E' (a misprint of I308E); also called Pyk2 FERM variant 1308E
# [1] = biological target: T1, 3x HA-tagged FAK FERM domain (FAK …); assay: Western blot of lysates of transfected SF767 cells
# [2] = biological target: T8, HA-epitope tagged wild type FAK (UniProt Q05397 2-1052, limits assumed); assay: Western blot of lysates of transfected SF767 cells
# T8 construct: mature; also called full length FAK; tyrosine kinase FAK
# Pyk2 FERM (FAKF3) = biological target: T9, Pyk2 FERM (FAKF3) (UniProt Q14289 39-260; Q05397 254-362); assay: Western blot of lysates of transfected SF767 cells
# T9 construct: range 39-260;range 254-362; A chimera made by splice overlap extension PCR; The range 39-260 of Pyk2 is derived from the printed limits of the FERM domain (R39-A366) and the F3 module (D261-A366); also called Pyk2 FERM domain containing the FAK FERM F3 domain
# T5 sequence (Q14289 whole entry W104A): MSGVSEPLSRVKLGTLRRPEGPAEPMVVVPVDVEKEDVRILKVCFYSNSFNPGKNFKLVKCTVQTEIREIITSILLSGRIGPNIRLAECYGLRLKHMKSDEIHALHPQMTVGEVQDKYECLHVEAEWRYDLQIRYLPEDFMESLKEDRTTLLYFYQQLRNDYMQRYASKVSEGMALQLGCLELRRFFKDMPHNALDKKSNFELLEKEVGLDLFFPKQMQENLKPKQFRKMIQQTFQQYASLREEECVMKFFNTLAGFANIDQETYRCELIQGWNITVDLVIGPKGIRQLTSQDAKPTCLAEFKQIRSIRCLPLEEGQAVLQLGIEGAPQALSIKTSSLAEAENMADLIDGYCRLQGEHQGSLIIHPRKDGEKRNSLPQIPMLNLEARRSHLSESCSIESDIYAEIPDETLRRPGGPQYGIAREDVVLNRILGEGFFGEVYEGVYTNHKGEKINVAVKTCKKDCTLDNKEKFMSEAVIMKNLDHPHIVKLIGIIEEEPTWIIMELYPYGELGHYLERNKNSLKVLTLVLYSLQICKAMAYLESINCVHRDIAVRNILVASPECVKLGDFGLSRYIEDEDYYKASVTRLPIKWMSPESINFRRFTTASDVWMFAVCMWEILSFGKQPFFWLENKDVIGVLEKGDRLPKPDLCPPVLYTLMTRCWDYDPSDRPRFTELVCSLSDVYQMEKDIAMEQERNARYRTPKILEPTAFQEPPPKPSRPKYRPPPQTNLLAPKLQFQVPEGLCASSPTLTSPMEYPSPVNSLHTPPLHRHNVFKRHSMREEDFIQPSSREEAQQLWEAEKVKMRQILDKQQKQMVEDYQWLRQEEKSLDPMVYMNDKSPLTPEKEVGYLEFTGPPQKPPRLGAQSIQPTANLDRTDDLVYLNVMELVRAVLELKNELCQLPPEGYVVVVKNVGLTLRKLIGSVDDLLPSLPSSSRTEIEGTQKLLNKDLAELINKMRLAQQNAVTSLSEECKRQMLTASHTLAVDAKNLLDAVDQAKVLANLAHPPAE
# T4 sequence (Q14289 whole entry Y135C): as the sequence (Q14289 whole entry W104A) above, with A104W, Y135C counted along it
# T6 sequence (Q14289 whole entry R306E): as the sequence (Q14289 whole entry W104A) above, with A104W, R306E counted along it
# T7 sequence (Q14289 39-366 I308E): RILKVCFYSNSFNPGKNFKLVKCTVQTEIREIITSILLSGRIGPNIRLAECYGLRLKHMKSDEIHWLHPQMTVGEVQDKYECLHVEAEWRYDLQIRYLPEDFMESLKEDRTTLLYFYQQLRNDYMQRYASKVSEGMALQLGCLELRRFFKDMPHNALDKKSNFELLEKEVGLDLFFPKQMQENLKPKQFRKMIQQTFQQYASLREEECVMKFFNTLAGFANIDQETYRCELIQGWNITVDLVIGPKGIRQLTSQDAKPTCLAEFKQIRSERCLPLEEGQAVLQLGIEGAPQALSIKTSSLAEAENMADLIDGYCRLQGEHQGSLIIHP
# T2 sequence (Q14289 whole entry I308E): as the sequence (Q14289 whole entry W104A) above, with A104W, I308E counted along it
# T3 sequence (Q14289 whole entry D346A): as the sequence (Q14289 whole entry W104A) above, with A104W, D346A counted along it
# T8 sequence (Q05397 2-1052 limits assumed): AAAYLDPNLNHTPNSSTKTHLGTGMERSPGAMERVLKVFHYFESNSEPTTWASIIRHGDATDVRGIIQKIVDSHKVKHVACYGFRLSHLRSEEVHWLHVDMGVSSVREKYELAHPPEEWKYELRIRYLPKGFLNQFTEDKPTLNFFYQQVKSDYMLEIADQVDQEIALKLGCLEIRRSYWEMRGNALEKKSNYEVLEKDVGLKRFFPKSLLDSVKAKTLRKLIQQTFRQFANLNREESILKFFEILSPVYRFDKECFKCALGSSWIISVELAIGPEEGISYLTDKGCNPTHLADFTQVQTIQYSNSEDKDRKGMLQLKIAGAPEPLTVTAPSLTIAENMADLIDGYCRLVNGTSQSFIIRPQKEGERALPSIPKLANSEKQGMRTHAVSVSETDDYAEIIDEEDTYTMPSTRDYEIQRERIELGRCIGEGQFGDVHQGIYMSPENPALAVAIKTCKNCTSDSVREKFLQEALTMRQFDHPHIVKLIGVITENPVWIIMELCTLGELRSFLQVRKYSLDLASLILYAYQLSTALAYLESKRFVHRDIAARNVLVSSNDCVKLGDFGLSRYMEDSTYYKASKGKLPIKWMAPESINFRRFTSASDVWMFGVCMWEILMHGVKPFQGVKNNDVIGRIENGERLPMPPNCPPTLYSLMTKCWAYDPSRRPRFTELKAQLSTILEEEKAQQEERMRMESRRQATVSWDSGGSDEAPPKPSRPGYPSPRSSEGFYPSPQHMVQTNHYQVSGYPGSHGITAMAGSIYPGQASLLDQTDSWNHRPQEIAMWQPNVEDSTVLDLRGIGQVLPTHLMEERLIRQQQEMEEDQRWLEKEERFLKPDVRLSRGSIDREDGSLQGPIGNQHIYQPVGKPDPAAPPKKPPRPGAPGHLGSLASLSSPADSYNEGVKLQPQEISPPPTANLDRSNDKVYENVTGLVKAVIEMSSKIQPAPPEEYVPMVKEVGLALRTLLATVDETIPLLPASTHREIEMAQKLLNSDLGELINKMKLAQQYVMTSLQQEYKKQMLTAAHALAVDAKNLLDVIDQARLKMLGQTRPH
binder,measurement,setting,value
B1,binding result,FLAG tagged Pyk2 I308E,no binding
same,binding result,FLAG tagged Pyk2 D346A,binds
same,binding result,FLAG tagged Pyk2 Y135C,binds
same,binding result,FLAG tagged Pyk2 W104A,binds
same,binding result,FLAG tagged Pyk2 R306E,no binding
same,binding result,Pyk2 FERM I308E variant,no binding
same,binding result,[1],no binding
same,binding result,[2],no binding
same,binding result,Pyk2 FERM (FAKF3),no binding
